Data set [1] addresses T1, thrombin (alpha-thrombin not specified) (Homo sapiens (human plasma), UniProt P00734;P00734 328-363;364-622). Nature of the data set: EMSA; K+; only the lower (folded) band bound; 1 uM Cy5-aptamer (10 uL) annealed in 10 mM sodium cacodylate pH 7.2, 100 mM KCl in D2O; 24 pmol thrombin (2.4 eq), 30 min at 25 C; 12% native PAGE, 1x TBE + 10. For orientation: In EMSA bound probe runs differently from free probe, usually more slowly.

Data set [2] deals with T1, thrombin (alpha-thrombin not specified). Nature of the data set: EMSA; K+; band at start of lane (multi-species complex), no clotting inhibition; 1 uM Cy5-aptamer (10 uL) annealed in 10 mM sodium cacodylate pH 7.2, 100 mM KCl in D2O; 24 pmol thrombin (2.4 eq), 30 min at 25 C; 12% native PAGE, 1x TBE + 10.

GGTTGGTGTGGTTGG (structured_DNA, 3'-propargyl linker) [TBA-ppg-Cy5]: the binding result in data set [1] is listed as “binds”.

For the molecule GGGTTGGGTGTGGGTTGGG (structured_DNA, 3'-propargyl linker) [3Q-ppg-Cy5 (Cy5-3Q)], the binding result in data set [2] is listed as “binds”.
